Experimental data published in the RNAGym collection of RNA variant scans (doi:10.1073/pnas.2313332121).
Variants at the floor of the assay were thinned out.

B1: TPR 5TU (parent)
chain: GGAUCUUCUCGAUCUAACAAAAAAGACAAAUCUGCCACAAAGCUUGAGAGCAUCUUCGGAUGCAGAGGCGGCAGCCUUCGGUGGCGCGAUAGCGCCAACGUUCUCAACUAUGACACGCAAAACGCGUGCUCCGUUGAAUGGAGUUUAUCAUG

Variants of: B1
Assay: polymerase ribozyme fitness, log enrichment relative to wild type (log ratio); higher = more active; in vitro selection for triplet polymerase activity
Procedure, shortened: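 Frozen incubation at −7 °C formed the core of a single, triplicate in vitro selection round applied to PCR-built, transcribed mutant libraries of each subunit of a heterodimeric triplet polymerase ribozyme. Extended constructs were gel-excised, captured with streptavidin beads and amplified by RT-PCR, and input and output libraries were Illumina-sequenced with a filter of ≥10 input reads and ≥1 read per output. Fitness is the logarithm of genotype enrichment relative to wild-type enrichment, with inverse-variance-weighted replicate averaging, and the logarithm is base 2.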

Row | Variant | polymerase ribozyme fitness (log ratio)
1 | G58A C87A A91C C99U | ≤ -4.2
2 | C57A C85U G124U U130A | -2.9
3 | U55C A98G A113U A142G | -2.98
4 | U55G U56A C93A C114A | ≤ -4.2
5 | U55G A60G G133U G136C | ≤ -4.2
6 | C57G U82A G83U G141U | -1.49
7 | C57U C76U A98G | -0.421
8 | U55G C93A A98U A142U | -3.92
9 | C57A A64C C129G | ≤ -4.2
10 | U55G C75G C76G G84U C118A U139C | ≤ -4.2
11 | G58A U61A C87A G117A | ≤ -4.2
12 | U56A G81U U101G | -0.889
13 | G58A U61G | -1.49
14 | U55G G68A | -3.69
15 | U55G G68U | -3.91
16 | U56A U82G C87G A91C | ≤ -4.2
17 | G58A G59A C96A | 0.0408
18 | U55G G80A C87U | -0.574
19 | G58A C72U C76G C99G A110C | ≤ -4.2
20 | C57U C85U C87U U144G | -0.0249
21 | G58A C149A | -3.67

Row | Variant | polymerase ribozyme fitness (log ratio)
22 | U56A C72U C76U C85U | -1.17
23 | C57G A73G C87G A98U C125G G141A | ≤ -4.2
24 | U56A G58U A119G C131A | -2.04
25 | U55G G83A A115C C123U G136U | -2.92
26 | C57G G94C C114G C118A | ≤ -4.2
27 | C57U G81C A106U | -1.74
28 | U55A U56G G80A | -1.37
29 | U56A C132G A137U | -4.03
30 | U56G A91G | -3.24
31 | G58A G88C G92A C96A | ≤ -4.2
32 | C57A G128C | -2.62
33 | U56A C96A A138G | ≤ -4.2
34 | C57A A60G C75G A91U G136A A137G U144G | ≤ -4.2
35 | C57G G140C | -4.08
36 | C57U G59U C93U G136U | -2.96
37 | G58A A89G G94A | -1.91
38 | U55A U77G U134C U139C | ≤ -4.2
39 | U56G A60C G81A G94U A106G | -3.84
40 | U55A U56A U78C G83U A89U | -0.955
41 | U56G G83A C87G C116G G140C | ≤ -4.2
42 | U56C U102G A142G | -3.95

Row | Variant | polymerase ribozyme fitness (log ratio)
43 | C57G G86U | -1.26
44 | G58A A107U G126U C149G | ≤ -4.2
45 | U55A U61C G94U | ≤ -4.2
46 | C57G A73U G83C G133U G143C U145C | ≤ -4.2
47 | U55C G59A C96A | -3.02
48 | U55G G59A G83A A98C C116G U127G | -4.04
49 | U56A U145G | -0.287
50 | G58C A66C G67A A89C U111C C116A C129G U148A | ≤ -4.2
51 | U55G C69A A97U A119U G141A | -1.39
52 | U56A G58C U61A G86U C87A G100U | ≤ -4.2
53 | C57U C118G U145C | -0.881
54 | C57A C96U C108U G140A | ≤ -4.2
55 | U55G C69U U78A A91U C93U G141A | ≤ -4.2
56 | C57A C96A | -0.383
57 | C57G A113G | -3.44
58 | U56G C85A | -2.05
59 | U56G C85U | -1.42
60 | C57G A73C C87G A97G U101G U130C | ≤ -4.2
61 | U55C C72U A150U | 0.059
62 | U56G C69U A73U U134C G141U U146A | -2.72
63 | U56A G81U C93U G141C | -1.52

Row | Variant | polymerase ribozyme fitness (log ratio)
64 | U55G C69U | -2.89
65 | U56A U90G | ≤ -4.2
66 | U56A A73C G84U U127C | ≤ -4.2
67 | U55C A119G U145A | -0.113
68 | U55G A89U C132G | -3.98
69 | U56A G81A | -0.577
70 | C57U C75A G88C G133U | ≤ -4.2
71 | U56G G59U C87A | ≤ -4.2
72 | C57G C125A | -0.508
73 | U55C C93G | -3.57
74 | U56A G126U | 0.137
75 | C57U G83A C99A | -2.32
76 | G58A C87G C116A A147C U151A | ≤ -4.2
77 | U55G G58C | -0.558
78 | U56G U78C C99G G124C C125U | -2.94
79 | C57A G68C C85A U134A U146C | ≤ -4.2
80 | U56A G83C A122G G152U | -3.94
81 | C57A U61A C95U A97U A115U U144C | ≤ -4.2
82 | U55G U61G C76U C87A U101G U134G G136U | ≤ -4.2
83 | U56G A97C | -1.65
84 | U56G U102C | -1.91
